Results taken from IntAct's records for PubMed 18303947.

B1: NMDA receptor synaptonuclear signaling and neuronal migration factor (Mus musculus), Q99NF2-1 (parent)
chain: MGAAASRRRALRSEAMSSVAAKVRAARAFGEYLSQSHPENRNGADHLLADAYSGHDGSPEMQPAPQNKRRLSLVSNGRYEGSISDEAVSGKPAIEGPQPHVYTISREPALLPGSEAEAIELAVVKGRRQRERHPHHHSQPLRASPGSSREDISRPCQSWAGSRQGSKECPGCAQLVPGPSSRAFGLEQPPLPEAPGRHKKLERMYSVDGVSDDVPIRTWFPKENLFSFQTATTTMQAISVFRGYAERKRRKRENDSASVIQRNFRKHLRMVGSRRVKAQTFAERRERSFSRSWSDPTPMKADTSHDSRDSSDLQSSHCTLDEACEDLDWDTEKGLEAMACNTEGFLPPKVMLISSKVPKAEYIPTIIRRDDPSIIPILYDHEHATFEDILEEIEKKLNIYHKGAKIWKMLIFCQGGPGHLYLLKNKVATFAKVEKEEDMIHFWKRLSRLMSKVNPEPNVIHIMGCYILGNPNGEKLFQNLRTLMTPYKVTFESPLELSAQGKQMIETYFDFRLYRLWKSRQHSKLLDFDDVL

Variants of: B1
Conditions: with Cabp1, O88751-1
Chain of Cabp1, O88751-1 (O88751 whole entry): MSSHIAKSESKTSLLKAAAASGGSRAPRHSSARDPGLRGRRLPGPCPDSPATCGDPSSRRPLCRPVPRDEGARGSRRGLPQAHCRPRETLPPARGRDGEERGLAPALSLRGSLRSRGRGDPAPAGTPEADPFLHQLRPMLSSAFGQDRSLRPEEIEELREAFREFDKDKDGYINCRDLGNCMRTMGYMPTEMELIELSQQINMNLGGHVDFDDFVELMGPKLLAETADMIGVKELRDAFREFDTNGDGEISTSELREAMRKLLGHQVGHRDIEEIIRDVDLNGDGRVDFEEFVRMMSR
With MGAAASRRRALRSEAMSSVAAKVRAARAFGEYLSQSHPENRNGADHLLADAYSGHDGSPEMQPAPQNKRRLSLVSNGRYEGSISDEAVSGKPAIEGPQPHVYTISREPALLPGSEAEAIELAVVKGRRQRERHPHHHSQPLRASPGSSREDISRPCQSWAGSRQGSKECPGCAQLVPGPSSRAFGLEQPPLPEAPGRHKKLERMYSVDGVSDDVPIRTWFPKENLFSFQTATTTMQAISVERGYAERKRRKRENDSASVIQRNFRKHLRMVGSRRVKAQTFAERRERSFSRSWSDPTPMKADTSHDSRDSSDLQSSHCTLDEACEDLDWDTEKGLEAMACNTEGFLPPKVMLISSKVPKAEYIPTIIRRDDPSIIPILYDHEHATFEDILEEIEKKLNIYHKGAKIWKMLIFCQGGPGHLYLLKNKVATFAKVEKEEDMIHFWKRLSRLMSKVNPEPNVIHIMGCYILGNPNGEKLFQNLRTLMTPYKVTFESPLELSAQGKQMIETYFDFRLYRLWKSRQHSKLLDFDDVL [F241E] the “effect of a mutation on the interaction” value was “disrupting interaction”.
